The numbers were not newly measured in PMC2935699, which cites them from elsewhere.

The term Ki denotes a dissociation constant, usually derived from enzyme kinetics or from competition with a known ligand.

Among the targets are Galanin receptor 1 (UniProt P47211); Galanin receptor 3 (UniProt O60755); Galanin receptor 2 (UniProt O43603).
Chain of UniProt O60755 (O60755 whole entry): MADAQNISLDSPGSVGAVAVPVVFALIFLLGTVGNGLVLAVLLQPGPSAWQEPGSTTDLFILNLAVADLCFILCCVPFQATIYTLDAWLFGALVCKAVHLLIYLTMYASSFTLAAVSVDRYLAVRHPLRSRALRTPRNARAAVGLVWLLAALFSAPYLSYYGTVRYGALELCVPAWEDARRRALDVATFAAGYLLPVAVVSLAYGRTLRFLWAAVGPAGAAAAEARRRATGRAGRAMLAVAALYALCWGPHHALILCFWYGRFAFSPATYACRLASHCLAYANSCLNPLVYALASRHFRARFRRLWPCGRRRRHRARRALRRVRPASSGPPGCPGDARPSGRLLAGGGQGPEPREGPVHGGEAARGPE
Chain of UniProt P47211 (P47211 whole entry): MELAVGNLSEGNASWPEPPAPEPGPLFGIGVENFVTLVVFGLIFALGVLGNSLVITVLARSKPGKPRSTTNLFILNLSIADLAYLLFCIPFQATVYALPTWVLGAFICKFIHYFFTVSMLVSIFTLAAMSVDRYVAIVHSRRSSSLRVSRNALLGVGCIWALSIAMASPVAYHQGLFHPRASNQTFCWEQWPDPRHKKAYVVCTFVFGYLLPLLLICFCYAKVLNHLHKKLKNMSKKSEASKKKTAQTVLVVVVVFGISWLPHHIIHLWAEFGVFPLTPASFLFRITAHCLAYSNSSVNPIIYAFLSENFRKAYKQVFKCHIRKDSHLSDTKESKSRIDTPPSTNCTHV
Chain of UniProt O43603 (O43603 whole entry): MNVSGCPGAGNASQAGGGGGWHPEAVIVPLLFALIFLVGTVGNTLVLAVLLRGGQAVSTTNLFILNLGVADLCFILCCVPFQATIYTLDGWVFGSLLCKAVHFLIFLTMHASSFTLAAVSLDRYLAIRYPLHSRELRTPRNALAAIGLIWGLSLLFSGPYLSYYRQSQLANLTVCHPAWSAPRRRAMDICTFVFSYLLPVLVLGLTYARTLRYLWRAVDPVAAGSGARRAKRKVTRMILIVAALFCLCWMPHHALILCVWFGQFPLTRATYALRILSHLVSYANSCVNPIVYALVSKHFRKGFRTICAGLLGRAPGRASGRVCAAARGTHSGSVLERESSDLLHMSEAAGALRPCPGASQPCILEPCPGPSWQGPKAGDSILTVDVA

Consider Galanin 1-16 1-16 (from UniProt P22466), for which the Ki in the data set with Galanin receptor 1 is 4.8 nM; with Galanin receptor 3 it was 49.6 nM; with Galanin receptor 2, 5.66 nM.
